The DeepSol protein solubility set

assay: soluble on expression in E. coli; label from the status in PepcDB or PDB records

Sequence | soluble on expression in E. coli
MSLDIQPFSMPLSSPLSTADGTIESRRGFLVRTEIDGVAGVGEAAPLPGWTESYDACQAALCGVEKPKQALEDNVFDDTPAARHAVSLAVADAAARRAGVPLYRRLGAGERVESVPVNATVGDGSPSATAEAVADAAAAGFPAAKVKVGNRSLDADIERIEAVRQRYPDIELRVDANGAWEFETAREAVESMSALGVAVLEQPLPAEALDNHRRLRGHGIDIALDEGLLRHGVDAAIAAEAADCLVCKPMALGGVDIARSAAERARADGWDVIVTTTIDGVVARAAAVHLAASVPDVRPCGLATGGRLASDVGPDAAPVSDGTAAVPQGKGNIPPLEGHHHHHH | soluble
MKVVAFNGSPRRDGNTSILIDKVLNELKKEGITTEHIHIAGGKLRGCTACYKCFETLNNKCIIECDIINNCIEKMIEADGIILGSPTYFTDVTAEMKALIDRAGFVAKANDDILKRKVGAAVVSVRRAGGVHVFDTLNHFFSINQMISVGSDYWNLGMGLDIGDVQKDAEGLHTMELLGQNMAWILKKINELEHHHHHH | not soluble
MEAKQTVFVNEFTNGILDPHGNMLGPVQDGGYIVANTTPGCWGPMITPCIRGGHEVTKPVFVEGAEVGDAIAIKIKSIRVTSIATSSGNDKPMEGRFVGDPFVAVKCPQCGTMYPETKIEGIGPEAIRCANCGADVTPFVFTNGYTMTFDPNRQIGVTVHKEAAEHIARQGRYYMATPDNSVQNPIVTFAPHDLVGTVARLRPFLGQLGTTPARPLPDSHNAGDFGQFLINAPHEYGITKEQLEDRTDGHMDINRVREGAVLICPVKVRGGGVYLGDMHAMQGDGEIAGHTTDVSGIVTLQVKVIKGLTIDGPILLPVAEDLPYLAKPLTKKEKEIALDLAQSWGVDKLEESLPISFVGTGANLNEATENGLQRAAKTLGISVPEVMNRATITGAIEIGRHPGVITVTFLCPIRYLDKISLTSLVYDQYRSVLE | not soluble
EDFVVSGALNLSLIRERTGFQAKATEDYQTLAGLVMSLLDRLPSTGDSLSWQGWNLQVVGVEERRVTRVLLQKQP | not soluble
FIFLALLGAAVAFPVDDDDKIVGGYTCGANTVPYQVSLNSGYHFCGGSLINSQWVVSAAHCYKSGIQVRLGEDNINVVEGNEQFISASKSIVHPSYNSNTLNNDIMLIKLKSAASLNSRVASISLPTSCASAGTQCLISGWGNTKSSGTSYPDVLKCLKAPILSDSSCKSAYPGQITSNMFCAGYLEGGKDSCQGDSGGPVVCSGKLQGIVSWGSGCAQKNKPGVYTKVCNYVSWIKQTIASN | soluble
MADYKDIVLIQSTSSLSASLGDRVTISCRASQDIRNYLNWYQQKPDGTVKLLIYYTSRLLPGVPSRFSGSGSGTDYSLTISNLEQEDIGTYFCQQGNTLPWTFGGGTKLEIRRGGGGSGGGGSGGGGSGGGGSEVQLQQSGPELVKPGASVKISCKDSGYAFSSSWMNWVKQRPGQGPEWIGRIYPGDGDTNYNGKFKGKATLTADKSSSTAYMQLSSLTSVDSAVYFCARSGLLRYAMDYWGQGTSVTVSS | soluble
MELKLIPIEKPENLNVILGQAHFIKTVEDLHEALVTAVPGIRFGLAFSEASGKRLVRRSGTDEALVELAVKNLLNLACGHVFLIVLGEGFYPINVLHAVKACPEVVRIYAATANPLKVVVAEEGEQRAILGVMDGFTPLGVEDEAEVAWRKDLLRRLGYKL | soluble
MGELIEGVWHPNWYDTASNGGRFVRSRARFRNWITADGSPGPSGEGGFPAEAGRYHLYVAHACPWAHRTMIFRALKDLAPLIDVSVVHPEMLEDGWTFDRSFPGATGDRLYGLAFLREIYLKADPGISARVTVPVLWDRKRETIVSNESAEIIRMFNAAFDHLTGNRVDFLPEGDLAEIDRLNDRIYGTVNNGVYRAGFATTQEAYDEAAAPLFETLDWLEERLATRRYLVGDRLTEADWRLFTTLVRFDKVYHTHFKCNRRQIVQYPNLWGWLRELWQVPGVAETVHFDHIVRHYYFSHDTINPHRIVPLTPDPDFAAPHGRDQLFQASRLR | not soluble
MIKPEYVVKLLSENMKKTRNPLGIKNEKTNNWWKKVEISKEGDWLFFTGMLYQLTPYIEATVKFLEKIENSRLQGLLTLSKAFPVPFSLLKAITPREAREEAETILQKVYFLLAKSVDVFYAPHLDFYSGILLYDFGHDEAFAEHAKFVCKRLESAGIEKIVTPDPHTTYALKVLYPKFTGVEFDVKSYIELLSDAKSLFNEEFVIHDPCYYGRYLELSDRVREVLNCAGVKYRGVRYSGRLTNCCGGPVEALSPKISREIARLRVEELGNSRIITFCPICLANLRRAGGNAVDFSMVVG | not soluble
MGSDKIHHHHHHMKLTILTDNRAAPGLTCEHGFAVLIETGGKRILFDTGQLTAIDANCRALGIDLSDIDIIVLSHGHYDHTGNLADVLRIADRATLYLHPSALIERYSIRNDKPKPIDMPETAKQAINGLPKERVVWVTEPTRLTDGAFLTGPVPRQTTFEDTGGPFFFDPDGKTPDPIEDDLSLWIEKPEGLIVLAGCCHAGIVNTLDYIESITGQKRIATLIGGMHLSAASPERLNRTVASLANRDISRLIACHCTGQAAVERFSKELPYPVEAGYAGMVVESANE | not soluble
MSLDLHLTNKLALITGSTKGIGKAIAIEMAREGTDVIINGRNEAEVTKVVKEIQTMFPDTHPQAGTADISIESQRATLLEKFPKVDILVNNMGIFEPMEYWDIDDATWEKFFTVNVLSGNALAKAYLPKMLAQDFGRIIFIASEEAVMPSGEMPQYSMTKTMNLSLAKSLSNLTVGTHVTVNTVMPGSTLTEGVEKMLEDMYADSDIPKEDWEKDFMKNHRSRSQIQRLIRPEEIGRFVTFVASPDSSSFSGEALRIDGGLVPTIEGHHHHHH | soluble
MGLSGFHSFLCCRSRDYHLVINTLIHTVMTMDITKSVAFTGHRSERILQVRMLYLYLDIVSQVKRLYSLGYRYFLSGMAEGFDLLAAQAVTALKAEYTDIRLIAVVPFSRQSNRYRPENKSLYDRIMKTADETVILREDYRKGCFHHRNDYLIDNSEIVLAYWDKQPYGGTYYTVGKARMVNRIIINLYK | not soluble
MEYLFLRRKKTRYTSVRQKTLLYRAASRRWEKEFALRTDVRRIDALIYKGILYLMEVRQVFLDSSLSLKTLSAMLETNQTYLSNVVNRYFGCNLKELVNTYRVEYAKELLRSGRCPIEEVPVRSGFGSKSPFYVAFGKVTGMTPRQYVAHERNPLKQEENN | not soluble
AHHHHHHGSNYRYPPRYGPEWGSGGIYGLRFHNGTLYFTLAFEGEAHFITEDSHKIYEFELVGPRPTSGGDTYNAVEVVDEYIYFGGWVHAPAKYRGKGEGKATIDFSNKYSHVHEYDTENQEVRLVWKESIHHPSEWAGEVSDIIYNPYTDELLLAREDGHTNLGVYSLSRNGRIRLLNDKPSAKGCQMHDLAFFGIGKNYRKGLEEIHALDMITERWEVFPLGESLDGGKYIQPHLGGNGVSVNNRVFAFVRGGVFVGNPHNDEQFAFVRLFDFYTFYAPFRVNALPIGGGILVGFNAHHDAYYRPRTQEEMIYHRFTNTIPGPSVLVYFAPPMVKIVGVFGARITSIEKVDGKILVATNTTPNVGALDATPFDTGNKDIFVLPEKILQEKPPAVSFSVPLAFPSEGKRMGAGVFGGIPLDGYDNARLIIKASRDNRLKVYEYDLALPLRDADVEEFDIKKGRNVIDLRTFSGIVSFELESEDFSGVARIELW | not soluble
MGSDKIHHHHHHMISSSTVHAFYFSAKYSSFSRAAEILETTQPNISGQIIKLEKDLDTILFIRKQGRVSLSKEGEKLYLVAEKIVNSYKEFDSVVEYFFEEEPIVIVTQPRLYTKYVAPYLTDDLINNNLFHIKTGELTAIKSWLDKEDADIVITEGLFDSHSRYINEGVIDVLKFSWAKKVNEQFDSPCPTLVHSKVWDHWHDLSSALNRNKEFKRKLIIDTPDFAERLIESGVGIGLLPNVMISNNANLEVCHGPTRNNVLGPICLYSKKYSQHKNLRSLVNMFKKESSDS | not soluble
MGSDKIHHHHHHMDNLVDVFCDVDDFCAVFMPQWKKQCVTDGTRKRQRSSRMDMSEIMTIIILFHTSHHRDFKNYYTGYLARFFKSDFPHLLSYTRFLELMPTAVVPLCSYFSSIRSLPTGIEFVDSTSVKVCHNLRIPRHKTLSGLARRGKGTMGWFYGFKLHLIVNHKGGIVAAKITPANTHDTKPVSGMVVNAMDKLYADKGYISKALASELLEQGVTLVNNVRKNMKKKVLSLWDRAMLSRRFIIETINDQLKNISQIEHSRHRSVHGFMLNMIGGLIAYQLKESKPQLNITDVDFNAISVMA | not soluble
MAGDPMFKKRLNKDKINDCYTWEEELPDGSYDMGFHGNLNHMEKGKSGYVTHKQLDKKLEVFKQDLLVELSEKFVTKEEFRAQGKQIKELQIEQKAQGKTLQLILEALQGINKRLDKLESKLEHHHHHH | soluble
MSLISPIIRLSHVTFQTSSAARVIKEFVTKYQFHPFAARGLDGGSPCQVALKNGGVVFMVNENTPKTHENSVLLYDFPLQIPFPDTACNVTFEVEDVSGLYHHLVDEGCQLLLPPTELHDDFGSVTYCIVKSVVGNVSHTLIDRTHYRSSFLPGFEYLKNSTHNLSSGNMTHVDHIAYTCPRGTSPSILEWYRRCFGFQHFPLSKGEDPERGFEIIGPRIGLRLTSLVCPKLSKECKLVLAESLPQEGINQVDEFMQQHTGGGIQHIGLSTPDIFKAAEDLSKLGVCFAIQPSSYYSETKKQKEIYSVGLEPQMLAQFGILMDSATDDILSNDAPKKFLLQVFAEPLFSKNSAFLELIERRSAEGFGEGNIRALWRSMQDLQEDQTVKEQEGEGHHHHHH | soluble
MGSDKIHHHHHHAQKGVDNGTQFGSGEDSVRCITNISLFVPYAKAGNFKDAYDFWKIVYDECPAATKDIYLYGVKIMGWKIAQEKDPAKKNALIDDLMGVYDKRVKYFGNDRRYGKDWIVARKVQDYLAQTGDNADYNQAYTWLKEIVDEKGADTEALGLSLFSFSSMKKMLNDPNFKEQYIQDYLKVSAGLDAQLKAAQAANNQKEVNALTAYKSGVDNAFANSGAADCETLQNLYAAKIEENKDNLPYLKETISLLRRTGCQEIEAYFLASDYAYRQEPSAEAAVGLGKKAVKIKDYDTAIKYFDEAANLETDATSKADDYYMIALLLFEQNAYSKARQYCQKALEVNPNYGNAYLLIGKMYAATSKSVFPNDGVLARAAYNAAIDKFEKAKQVDPSVAEEANTLISSYRAHLPSTEEIFMHPDLEKGKPFTVGGWIGERTTIR | not soluble
QDSTQNLIPAPPLISVPLQPGFWTERFQGRWFVVGLAGNAVQKERQSRFTMYSTIYELQEDNSYNVTSILVRGQGCRYWIRTFVPSSRPGQFTLGNIHSYPQIQSYDVQVADTDYDQFAMVFFQKTSENKQYFKVTLYGRTKGLSDELKERFVSFAKSLGLKDNNIVFSVPTDQCIDN | soluble
MYHLKKQRIMGAVKRNTLSVLFIIKKAKLLKNGEAPVCMRITVNKRVAEVMIKRSIPVDLWNQKKECSKGKDRVAIELNHYINTVRAKVLQIHRELEIDNKPITADIIKDCFYGRDKVQRSLQEVYKEHNEKCRALIGKEYTESTVIKFDTSINRLKEYIRSCYHRDDIMLAELDGQFIRDFDFWLKTEKHCQNNSALKHLKNLKKVVRIALANDWIKKDPFYGIHFKQEEVNVEFLSREELDILMNKEFAIKRLEQVRDIFVFCCFTALAFVDVQQLSREHLIKDNSGALWIRKARQKTNQMCNIPVLSIPQRILRKYEDNAECIKKGVLLPVISNQRMNAYLKEIADLCGITKRLTTHVARHTAATIVFLANDVSMENVSKILGHSNIRMTQHYAKVLDSSIMRDMVNVEKNFK | not soluble
